Measurements taken from PMC5053164.

Assay: expression yield of multisite mutants
Conditions: glycan lost; control: wild type

Row | Protein | expression_or_secretion, percent_of_wt
1 | DORN1 extracellular domain (atDORN1-ECD; LecRK-I.9): N124N225D (protein) parent chain: MARWLLQILIISSLHLSSVSSQQETSFVYESFLDRQNLYLDKSAIVLPSGLLQLTNASEHQMGHAFHKKPIEFSSSGPLSFSTHFVCALVPKPGFEGGHGIVFVLSPSMDFTHAESTRYLGIFNASTNGSSSYHVLAVELDTIWNPDFKDIDHNHVGIDVNSPISVAIASASYYSDMKGSNESINLLSGNPIQVWVDYEGTLLNVSVAPLEVQKPTRPLLSHPINLTELFPNRSSLFAGFSAATGTAISDQYILWWSFSIDRGSLQRLDISKLPEVPHPRAPHKKVSTLIILLPVCLAILVLAVLAGLYFRRRRKYSEVSETWEKEFDAHRFSYRSLFKATKGFSKDEFLGKGGFGEVYRGNLPQGREIAVKRVSHNGDEGVKQFVAEVVSMRCLKHRNLVPLFGYCRRKRELLLVSEYMPNGSLDEHLFDDQKPVLSWSQRLVVVKGIASALWYLHTGADQVVLHRDVKASNIMLDAEFHGRLGDFGMARFHEHGGNAATTAAVGTVGYMAPELITMGASTGTDVYAFGVFMLEVTCGRRPVEPQLQVEKRHMIKWVCECWKKDSLLDATDPRLGGKFVAEEVEMVMKLGLLCSNIVPESRPTMEQVVLYLNKNLPLPDFSPYTLGIGTFAPVLVDASSLVVSSASWSLSGPSMSSSSPNHSPYAWQSTDQPWGQTIDTKNSLHIVAEPEKPSPAVKMVTLPAEDPQSNHSSISSQRVQPVKREKRRLHQILVAFPWINKQYFKLGLPKHIVHVSLFFFLQLARL | decreases
2 | DORN1 extracellular domain (atDORN1-ECD; LecRK-I.9): N124N204N225D (protein) parent chain: MARWLLQILIISSLHLSSVSSQQETSFVYESFLDRQNLYLDKSAIVLPSGLLQLTNASEHQMGHAFHKKPIEFSSSGPLSFSTHFVCALVPKPGFEGGHGIVFVLSPSMDFTHAESTRYLGIFNASTNGSSSYHVLAVELDTIWNPDFKDIDHNHVGIDVNSPISVAIASASYYSDMKGSNESINLLSGNPIQVWVDYEGTLLNVSVAPLEVQKPTRPLLSHPINLTELFPNRSSLFAGFSAATGTAISDQYILWWSFSIDRGSLQRLDISKLPEVPHPRAPHKKVSTLIILLPVCLAILVLAVLAGLYFRRRRKYSEVSETWEKEFDAHRFSYRSLFKATKGFSKDEFLGKGGFGEVYRGNLPQGREIAVKRVSHNGDEGVKQFVAEVVSMRCLKHRNLVPLFGYCRRKRELLLVSEYMPNGSLDEHLFDDQKPVLSWSQRLVVVKGIASALWYLHTGADQVVLHRDVKASNIMLDAEFHGRLGDFGMARFHEHGGNAATTAAVGTVGYMAPELITMGASTGTDVYAFGVFMLEVTCGRRPVEPQLQVEKRHMIKWVCECWKKDSLLDATDPRLGGKFVAEEVEMVMKLGLLCSNIVPESRPTMEQVVLYLNKNLPLPDFSPYTLGIGTFAPVLVDASSLVVSSASWSLSGPSMSSSSPNHSPYAWQSTDQPWGQTIDTKNSLHIVAEPEKPSPAVKMVTLPAEDPQSNHSSISSQRVQPVKREKRRLHQILVAFPWINKQYFKLGLPKHIVHVSLFFFLQLARL | decreases
3 | DORN1 extracellular domain (atDORN1-ECD; LecRK-I.9): N124N128N225D (protein) parent chain: MARWLLQILIISSLHLSSVSSQQETSFVYESFLDRQNLYLDKSAIVLPSGLLQLTNASEHQMGHAFHKKPIEFSSSGPLSFSTHFVCALVPKPGFEGGHGIVFVLSPSMDFTHAESTRYLGIFNASTNGSSSYHVLAVELDTIWNPDFKDIDHNHVGIDVNSPISVAIASASYYSDMKGSNESINLLSGNPIQVWVDYEGTLLNVSVAPLEVQKPTRPLLSHPINLTELFPNRSSLFAGFSAATGTAISDQYILWWSFSIDRGSLQRLDISKLPEVPHPRAPHKKVSTLIILLPVCLAILVLAVLAGLYFRRRRKYSEVSETWEKEFDAHRFSYRSLFKATKGFSKDEFLGKGGFGEVYRGNLPQGREIAVKRVSHNGDEGVKQFVAEVVSMRCLKHRNLVPLFGYCRRKRELLLVSEYMPNGSLDEHLFDDQKPVLSWSQRLVVVKGIASALWYLHTGADQVVLHRDVKASNIMLDAEFHGRLGDFGMARFHEHGGNAATTAAVGTVGYMAPELITMGASTGTDVYAFGVFMLEVTCGRRPVEPQLQVEKRHMIKWVCECWKKDSLLDATDPRLGGKFVAEEVEMVMKLGLLCSNIVPESRPTMEQVVLYLNKNLPLPDFSPYTLGIGTFAPVLVDASSLVVSSASWSLSGPSMSSSSPNHSPYAWQSTDQPWGQTIDTKNSLHIVAEPEKPSPAVKMVTLPAEDPQSNHSSISSQRVQPVKREKRRLHQILVAFPWINKQYFKLGLPKHIVHVSLFFFLQLARL | decreases
4 | DORN1 extracellular domain (atDORN1-ECD; LecRK-I.9): N204N225D (protein) parent chain: MARWLLQILIISSLHLSSVSSQQETSFVYESFLDRQNLYLDKSAIVLPSGLLQLTNASEHQMGHAFHKKPIEFSSSGPLSFSTHFVCALVPKPGFEGGHGIVFVLSPSMDFTHAESTRYLGIFNASTNGSSSYHVLAVELDTIWNPDFKDIDHNHVGIDVNSPISVAIASASYYSDMKGSNESINLLSGNPIQVWVDYEGTLLNVSVAPLEVQKPTRPLLSHPINLTELFPNRSSLFAGFSAATGTAISDQYILWWSFSIDRGSLQRLDISKLPEVPHPRAPHKKVSTLIILLPVCLAILVLAVLAGLYFRRRRKYSEVSETWEKEFDAHRFSYRSLFKATKGFSKDEFLGKGGFGEVYRGNLPQGREIAVKRVSHNGDEGVKQFVAEVVSMRCLKHRNLVPLFGYCRRKRELLLVSEYMPNGSLDEHLFDDQKPVLSWSQRLVVVKGIASALWYLHTGADQVVLHRDVKASNIMLDAEFHGRLGDFGMARFHEHGGNAATTAAVGTVGYMAPELITMGASTGTDVYAFGVFMLEVTCGRRPVEPQLQVEKRHMIKWVCECWKKDSLLDATDPRLGGKFVAEEVEMVMKLGLLCSNIVPESRPTMEQVVLYLNKNLPLPDFSPYTLGIGTFAPVLVDASSLVVSSASWSLSGPSMSSSSPNHSPYAWQSTDQPWGQTIDTKNSLHIVAEPEKPSPAVKMVTLPAEDPQSNHSSISSQRVQPVKREKRRLHQILVAFPWINKQYFKLGLPKHIVHVSLFFFLQLARL | decreases
5 | DORN1 extracellular domain (atDORN1-ECD; LecRK-I.9): N128N204D (protein) parent chain: MARWLLQILIISSLHLSSVSSQQETSFVYESFLDRQNLYLDKSAIVLPSGLLQLTNASEHQMGHAFHKKPIEFSSSGPLSFSTHFVCALVPKPGFEGGHGIVFVLSPSMDFTHAESTRYLGIFNASTNGSSSYHVLAVELDTIWNPDFKDIDHNHVGIDVNSPISVAIASASYYSDMKGSNESINLLSGNPIQVWVDYEGTLLNVSVAPLEVQKPTRPLLSHPINLTELFPNRSSLFAGFSAATGTAISDQYILWWSFSIDRGSLQRLDISKLPEVPHPRAPHKKVSTLIILLPVCLAILVLAVLAGLYFRRRRKYSEVSETWEKEFDAHRFSYRSLFKATKGFSKDEFLGKGGFGEVYRGNLPQGREIAVKRVSHNGDEGVKQFVAEVVSMRCLKHRNLVPLFGYCRRKRELLLVSEYMPNGSLDEHLFDDQKPVLSWSQRLVVVKGIASALWYLHTGADQVVLHRDVKASNIMLDAEFHGRLGDFGMARFHEHGGNAATTAAVGTVGYMAPELITMGASTGTDVYAFGVFMLEVTCGRRPVEPQLQVEKRHMIKWVCECWKKDSLLDATDPRLGGKFVAEEVEMVMKLGLLCSNIVPESRPTMEQVVLYLNKNLPLPDFSPYTLGIGTFAPVLVDASSLVVSSASWSLSGPSMSSSSPNHSPYAWQSTDQPWGQTIDTKNSLHIVAEPEKPSPAVKMVTLPAEDPQSNHSSISSQRVQPVKREKRRLHQILVAFPWINKQYFKLGLPKHIVHVSLFFFLQLARL | decreases
6 | DORN1 extracellular domain (atDORN1-ECD; LecRK-I.9): N124N128N204D (protein) parent chain: MARWLLQILIISSLHLSSVSSQQETSFVYESFLDRQNLYLDKSAIVLPSGLLQLTNASEHQMGHAFHKKPIEFSSSGPLSFSTHFVCALVPKPGFEGGHGIVFVLSPSMDFTHAESTRYLGIFNASTNGSSSYHVLAVELDTIWNPDFKDIDHNHVGIDVNSPISVAIASASYYSDMKGSNESINLLSGNPIQVWVDYEGTLLNVSVAPLEVQKPTRPLLSHPINLTELFPNRSSLFAGFSAATGTAISDQYILWWSFSIDRGSLQRLDISKLPEVPHPRAPHKKVSTLIILLPVCLAILVLAVLAGLYFRRRRKYSEVSETWEKEFDAHRFSYRSLFKATKGFSKDEFLGKGGFGEVYRGNLPQGREIAVKRVSHNGDEGVKQFVAEVVSMRCLKHRNLVPLFGYCRRKRELLLVSEYMPNGSLDEHLFDDQKPVLSWSQRLVVVKGIASALWYLHTGADQVVLHRDVKASNIMLDAEFHGRLGDFGMARFHEHGGNAATTAAVGTVGYMAPELITMGASTGTDVYAFGVFMLEVTCGRRPVEPQLQVEKRHMIKWVCECWKKDSLLDATDPRLGGKFVAEEVEMVMKLGLLCSNIVPESRPTMEQVVLYLNKNLPLPDFSPYTLGIGTFAPVLVDASSLVVSSASWSLSGPSMSSSSPNHSPYAWQSTDQPWGQTIDTKNSLHIVAEPEKPSPAVKMVTLPAEDPQSNHSSISSQRVQPVKREKRRLHQILVAFPWINKQYFKLGLPKHIVHVSLFFFLQLARL | decreases
7 | DORN1 extracellular domain (atDORN1-ECD; LecRK-I.9): N128N204N225D (protein) parent chain: MARWLLQILIISSLHLSSVSSQQETSFVYESFLDRQNLYLDKSAIVLPSGLLQLTNASEHQMGHAFHKKPIEFSSSGPLSFSTHFVCALVPKPGFEGGHGIVFVLSPSMDFTHAESTRYLGIFNASTNGSSSYHVLAVELDTIWNPDFKDIDHNHVGIDVNSPISVAIASASYYSDMKGSNESINLLSGNPIQVWVDYEGTLLNVSVAPLEVQKPTRPLLSHPINLTELFPNRSSLFAGFSAATGTAISDQYILWWSFSIDRGSLQRLDISKLPEVPHPRAPHKKVSTLIILLPVCLAILVLAVLAGLYFRRRRKYSEVSETWEKEFDAHRFSYRSLFKATKGFSKDEFLGKGGFGEVYRGNLPQGREIAVKRVSHNGDEGVKQFVAEVVSMRCLKHRNLVPLFGYCRRKRELLLVSEYMPNGSLDEHLFDDQKPVLSWSQRLVVVKGIASALWYLHTGADQVVLHRDVKASNIMLDAEFHGRLGDFGMARFHEHGGNAATTAAVGTVGYMAPELITMGASTGTDVYAFGVFMLEVTCGRRPVEPQLQVEKRHMIKWVCECWKKDSLLDATDPRLGGKFVAEEVEMVMKLGLLCSNIVPESRPTMEQVVLYLNKNLPLPDFSPYTLGIGTFAPVLVDASSLVVSSASWSLSGPSMSSSSPNHSPYAWQSTDQPWGQTIDTKNSLHIVAEPEKPSPAVKMVTLPAEDPQSNHSSISSQRVQPVKREKRRLHQILVAFPWINKQYFKLGLPKHIVHVSLFFFLQLARL | decreases
